Source: article PMC11613296

Target: Tau (2N4R Tau; Tau(291–391)) 2-441 (UniProt P10636)
Assay: ELISA, immobilised Tau(291–391), soluble 2N4R Tau
Settings: reference: unmodified (WT) Tau(291–391)

binding against the reference (sites S356) | binding against the reference (sites S352) | Substance
weaker | – | Tau (2N4R Tau; Tau(291–391)) 291-391 (from UniProt P10636-8) pS356 Tau(291–391)
– | weaker | Tau (2N4R Tau; Tau(291–391)) 291-391 (from UniProt P10636-8) pS352 Tau(291–391)
